# Measured values published in the supplement of paper PMC7877785.
# ± gives the uncertainty stated by the source.
# Assay: self-splicing fitness, log relative to wild type (ln ratio); higher = more splicing; Tetrahymena group I intron in knt gene, E. coli kanamycin selection, DiMSum; sequences stand for … in CUCUCU…GGAGGGAAAAGUUAUCAGGCAUGCACCUGGUAGCUAGUCUUUAAACCAAUAGAUUGCAUCGGUUUAAAAGGCAAGACCGUCAAAUUGCGGGAAAGGGGUCAACAGCCGUUCAGUACCAAGUCUCAGGGGAAACUUUGAGAUGGCCUUGCAAAGGGUAUGGUAAUAAGCUGACGGACAUGGUCCUAACCACGCAGCCAAGUCCUAAGUCAACAGAUCUUCUGUUGAUAUGGAUGCAGUUCACAGACUAAAUGUCGGUCGGGGAAGAUGUAUUCUUCUCAUAAGAUAUAGUCGGACCUCUCCUUAAUGGGAGCUAGCGGAUGAAGUGAUGCAACACUGGAGCCGCUGGGAACUAAUUUGUAUGCGAAAGUAUAUUGAUUAGUUUUGGAGUACUCGUGGUCG
# Outline: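 Pooled colonies went to amplicon sequencing on an Illumina HiSeq 2500 after six replicate transformations. The plates were LB agar with 100 μg/mL carbenicillin, 50 μM IPTG and 0.2% rhamnose, with or without 25 μg/mL kanamycin, incubated overnight at 37°C or 30°C. The E. coli BL21(DE3) library had all eight P1ex-region intron nucleotides randomised, the intron placed in the knt kanamycin-resistance gene on pET-22b(+). DiMSum fitness is the error-weighted combination of replicate fold changes, kanamycin against none, normalised to wild type.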
Sequence,self-splicing fitness (ln) (30 °C),self-splicing fitness (ln) (37 °C)
AUGUAGCAAUAUUACGCGCA,-0.46 ± 0.16,-0.226 ± 0.15
AUGUAGCAAUAUUACGCGGU,-2.3 ± 0.15,-1.58 ± 0.2
AUGUAGCAAUAUUACGCUAA,-1.75 ± 0.12,-0.814 ± 0.13
AUGUAGCAAUAUUACGGAGG,-3.57 ± 0.23,-2.57 ± 0.23
AUGUAGCAAUAUUACGGCGA,-0.117 ± 0.088,-0.00452 ± 0.11
AUGUAGCAAUAUUACGGCUA,-2.45 ± 0.22,-2.14 ± 0.25
AUGUAGCAAUAUUACGUAAA,-2.25 ± 0.25,-1.9 ± 0.26
AUGUAGCAAUAUUACGUAGC,-2.56 ± 0.18,-2.43 ± 0.29
AUGUAGCAAUAUUACGUGUA,-2.47 ± 0.11,-1.74 ± 0.089
AUGUAGCAAUAUUACGUUAU,-2.41 ± 0.22,-2.12 ± 0.22
AUUAAGCAAUAUUACGAAAA,-1.27 ± 0.16,-1.5 ± 0.18
AUUAAGCAAUAUUACGAAAC,-3.37 ± 0.16,-1.6 ± 0.15
AUUAAGCAAUAUUACGAAAG,-1.89 ± 0.15,-1.23 ± 0.16
AUUAAGCAAUAUUACGAACC,-1.35 ± 0.29,-0.847 ± 0.29
AUUAAGCAAUAUUACGACAC,-0.804 ± 0.13,-0.46 ± 0.14
AUUAAGCAAUAUUACGAGAC,-3.39 ± 0.48,-1.46 ± 0.27
AUUAAGCAAUAUUACGAGUA,-2.07 ± 0.16,-1.49 ± 0.13
AUUAAGCAAUAUUACGCAGG,-2.22 ± 0.19,-0.608 ± 0.2
AUUAAGCAAUAUUACGCGCA,-0.661 ± 0.13,0.376 ± 0.16

Sequence,self-splicing fitness (ln) (30 °C),self-splicing fitness (ln) (37 °C)
AUUAAGCAAUAUUACGCGGA,-2.44 ± 0.2,-0.491 ± 0.15
AUUAAGCAAUAUUACGCGUG,-0.804 ± 0.067,-0.697 ± 0.081
AUUAAGCAAUAUUACGCUCG,-0.344 ± 0.11,0.171 ± 0.15
AUUAAGCAAUAUUACGCUCU,-0.588 ± 0.18,0.11 ± 0.16
AUUAAGCAAUAUUACGCUUA,-2.18 ± 0.26,-1.82 ± 0.25
AUUAAGCAAUAUUACGGAAU,-1.3 ± 0.14,-1.3 ± 0.18
AUUAAGCAAUAUUACGGACG,-1.18 ± 0.12,-0.721 ± 0.14
AUUAAGCAAUAUUACGGAGG,-2.32 ± 0.16,-1.42 ± 0.27
AUUAAGCAAUAUUACGGUCU,-0.183 ± 0.15,0.0171 ± 0.15
AUUAAGCAAUAUUACGUAAC,-2.12 ± 0.12,-1.88 ± 0.14
AUUAAGCAAUAUUACGUACU,0.0206 ± 0.094,0.125 ± 0.12
AUUAAGCAAUAUUACGUAGA,-2.39 ± 0.15,-0.947 ± 0.15
AUUAAGCAAUAUUACGUUAC,-2.99 ± 0.26,-1.16 ± 0.27
AUUAAGCAAUAUUACGUUUA,-1.61 ± 0.14,-1.54 ± 0.15
AUUCAGCAAUAUUACGAAUC,-2.12 ± 0.2,-0.519 ± 0.32
AUUCAGCAAUAUUACGAAUU,-3.71 ± 0.15,-2.29 ± 0.16
AUUCAGCAAUAUUACGACCG,0.174 ± 0.18,-0.187 ± 0.27
AUUCAGCAAUAUUACGACUG,-1.47 ± 0.13,-0.646 ± 0.15
